# Measured values: publication PMC3326351 (International Journal of Oncology, 2011)
# B1: His-tagged MUC1-C cytoplasmic domain (domain or fragment, human, UniProt P15941 1182-1255, looked up)
# chain: AVCQCRRKNYGQLDIFPARDTYHPMSEYPTYHTHGRYVPPSSTDRSPYEKVSAGNGGSSLSYTNPAVAATSANL
# Molecular target: the molecule itself
# Assay: non-reducing SDS-PAGE and immunoblot
protein,measurement,value
B1,binding result,binds
